Assay [1] deals with T1, triple-helical peptide (THP) [(POG)10]3 (synthetic construct, O of each POG triplet, as printed in (POG)10). Nature of the assay: ITC. Background: ITC needs no label: the signal is the heat of the interaction.
For assay [2], the target named is T1, triple-helical peptide (THP) [(POG)10]3. Briefly: ITC. This is another data set of the same source.

Read-outs that look alike come from different tables or passages of the source.

For two molecules, Kd results are on record in paper PMC8799719 (2022).

B1: ColG-activator domain (domain or fragment)
chain: YDFEYLNGLSYTELTNLIKNIKWNQINGLFNYSTGSQKFFGDKNRVQAIINALQESGRTYTANDMKGIETFTEVLRAGFYLGYYNDGLSYLNDRNFQDKCIPAMIAIQKNPNFKLGTAVQDEVITSLGKLIGNASANAEVVNNCVPVLKQFRENLNQYAPDYVKGTAVNELIKGIEFDFSGAAYEKDVKTMPWYGKIDPFINELKALGLYGNITSATEWASDVGIYYLSKFGLYSTNRNDIVQSLEKAVDMYKYGKIAFVAMERITWDYD
Consider B1, for which binding in assay [1] was characterised by a dissociation constant (Kd) of 3.28 µM. That is a single-digit micromolar value.

B2: recombinant activator domain of VhaC (domain or fragment)
chain: SAEQAANVCDVEAFTSNSSNDVLNAIKTQGASCVNALFSAESRIQEAAFESGHMYNIAKHTTDLAKAYAGGGSDELEALFLYLRAGYYAEFYNSKVSFLSWVTPAVKEAVDAFVNNANFYENSDPHGKVLSEVIITMDSAGLQHAYLPQVTQWLTRWDSQYAQNWYMRNAVNGVFTILFGGQWNEQFVQTIGNQTELAKALGDFALRSSAIGASDEFMAANAGRELGRLTKYSGSASSTVKSKLTEIFAQYEMYGRGDAIWLGAADTVSYYADCSDY
B2 returned a dissociation constant Kd in assay [2] of 82.8 µM. That is a double-digit micromolar value.

As usually defined, the Kd is the constant that tells how readily two partners part at equilibrium. Higher therefore signals lower affinity.
